Data as given in patent publication US20140087995A1 (published 2014).
Numbered stars: 1 amine (or outer) side, 2 acyl side, 3 side chain; on linkers, the order of the positions; unused ones are H or OH. Bridge positions count the residues as written; N and C are the ends. Square brackets hold non-standard residues; d marks the D form. Side chains are listed from the residue outwards. Ends that are not written are not given here. * marks the point of attachment. C20 diacid = O=C(O)CCCCCCCCCCCCCCCCCCC(=O)*; γGlu = O=C(O)[C@H](CCC(=O)[*:2])N[*:1]

T1: human amylin receptor (amylin 3(a) receptor: human calcitonin receptor co-expressed with RAMP-3) (human, UniProt P30988 25-474; O60896 24-148, limits assumed)
T1 construct: whole, on cells; Used as cell membranes prepared from the Amylin 3(a)/CRE-luc BHK cells (Assay V); also called hAmylin-R; hAmylinR
T1 sequence (looked up) 1: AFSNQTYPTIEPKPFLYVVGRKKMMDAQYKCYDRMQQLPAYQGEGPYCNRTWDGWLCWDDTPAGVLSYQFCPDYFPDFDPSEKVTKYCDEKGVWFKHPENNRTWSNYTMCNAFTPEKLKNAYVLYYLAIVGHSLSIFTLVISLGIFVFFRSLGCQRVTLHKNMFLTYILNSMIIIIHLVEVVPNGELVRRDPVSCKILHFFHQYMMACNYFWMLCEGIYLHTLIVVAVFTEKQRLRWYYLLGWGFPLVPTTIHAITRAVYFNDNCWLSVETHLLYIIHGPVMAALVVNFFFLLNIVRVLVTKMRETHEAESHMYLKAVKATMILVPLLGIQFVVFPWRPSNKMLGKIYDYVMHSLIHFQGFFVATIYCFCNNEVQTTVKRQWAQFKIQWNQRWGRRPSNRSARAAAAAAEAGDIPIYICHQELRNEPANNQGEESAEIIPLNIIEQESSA
T1 sequence (looked up) 2: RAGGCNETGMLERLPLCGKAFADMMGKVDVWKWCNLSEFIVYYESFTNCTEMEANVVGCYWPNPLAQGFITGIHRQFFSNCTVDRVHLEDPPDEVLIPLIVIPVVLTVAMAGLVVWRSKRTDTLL

B1: N^ε1-[(4S)-4-carboxy-4-(19-carboxynonadecanoylamino)butanoyl]-[Ala14,Arg17,Pro21,Pro27,Pro34]-h-amylin (peptide)
peptide: K([γGlu-C20 diacid])CNTATCATQRLAAFLRHSSPNFGAIPSSTNVGPNTY-NH2
modifications: disulfide 2-7; N-terminus assumed
SMILES: CC[C@H](C)[C@H](NC(=O)[C@H](C)NC(=O)CNC(=O)[C@H](Cc1ccccc1)NC(=O)[C@H](CC(N)=O)NC(=O)[C@@H]1CCCN1C(=O)[C@H](CO)NC(=O)[C@H](CO)NC(=O)[C@H](Cc1c[nH]cn1)NC(=O)[C@H](CCCNC(=N)N)NC(=O)[C@H](CC(C)C)NC(=O)[C@H](Cc1ccccc1)NC(=O)[C@H](C)NC(=O)[C@H](C)NC(=O)[C@H](CC(C)C)NC(=O)[C@H](CCCNC(=N)N)NC(=O)[C@H](CCC(N)=O)NC(=O)[C@@H](NC(=O)[C@H](C)NC(=O)[C@@H]1CSSC[C@H](NC(=O)[C@@H](N)CCCCNC(=O)CC[C@H](NC(=O)CCCCCCCCCCCCCCCCCCC(=O)O)C(=O)O)C(=O)N[C@@H](CC(N)=O)C(=O)N[C@@H]([C@@H](C)O)C(=O)N[C@@H](C)C(=O)N[C@@H]([C@@H](C)O)C(=O)N1)[C@@H](C)O)C(=O)N1CCC[C@H]1C(=O)N[C@@H](CO)C(=O)N[C@@H](CO)C(=O)N[C@H](C(=O)N[C@@H](CC(N)=O)C(=O)N[C@H](C(=O)NCC(=O)N1CCC[C@H]1C(=O)N[C@@H](CC(N)=O)C(=O)N[C@H](C(=O)N[C@@H](Cc1ccc(O)cc1)C(N)=O)[C@@H](C)O)C(C)C)[C@@H](C)O
notes: also called compound 94
B2: N^ε1-[(4S)-4-carboxy-4-[[(4S)-4-carboxy-4-(19-carboxynonadecanoylamino)butanoyl]amino]butanoyl]-[Glu14,Arg17,Pro21,Pro27,Pro34,His35]-h-amylin (peptide)
peptide: K([γGlu-γGlu-C20 diacid])CNTATCATQRLAEFLRHSSPNFGAIPSSTNVGPHTY-NH2
modifications: disulfide 2-7 (inferred)
B3: N^ε1-[(4S)-4-carboxy-4-(19-carboxynonadecanoylamino)butanoyl]-[His14,Arg17,Pro21,Pro27,Pro34,Pro37]-h-amylin (peptide)
peptide: K([γGlu-C20 diacid])CNTATCATQRLAHFLRHSSPNFGAIPSSTNVGPNTP-NH2
modifications: disulfide 2-7; N-terminus assumed
SMILES: CC[C@H](C)[C@H](NC(=O)[C@H](C)NC(=O)CNC(=O)[C@H](Cc1ccccc1)NC(=O)[C@H](CC(N)=O)NC(=O)[C@@H]1CCCN1C(=O)[C@H](CO)NC(=O)[C@H](CO)NC(=O)[C@H](Cc1c[nH]cn1)NC(=O)[C@H](CCCNC(=N)N)NC(=O)[C@H](CC(C)C)NC(=O)[C@H](Cc1ccccc1)NC(=O)[C@H](Cc1c[nH]cn1)NC(=O)[C@H](C)NC(=O)[C@H](CC(C)C)NC(=O)[C@H](CCCNC(=N)N)NC(=O)[C@H](CCC(N)=O)NC(=O)[C@@H](NC(=O)[C@H](C)NC(=O)[C@@H]1CSSC[C@H](NC(=O)[C@@H](N)CCCCNC(=O)CC[C@H](NC(=O)CCCCCCCCCCCCCCCCCCC(=O)O)C(=O)O)C(=O)N[C@@H](CC(N)=O)C(=O)N[C@@H]([C@@H](C)O)C(=O)N[C@@H](C)C(=O)N[C@@H]([C@@H](C)O)C(=O)N1)[C@@H](C)O)C(=O)N1CCC[C@H]1C(=O)N[C@@H](CO)C(=O)N[C@@H](CO)C(=O)N[C@H](C(=O)N[C@@H](CC(N)=O)C(=O)N[C@H](C(=O)NCC(=O)N1CCC[C@H]1C(=O)N[C@@H](CC(N)=O)C(=O)N[C@H](C(=O)N1CCC[C@H]1C(N)=O)[C@@H](C)O)C(C)C)[C@@H](C)O
B4: N^ε1-[(4S)-4-carboxy-4-[[(4S)-4-carboxy-4-(19-carboxynonadecanoylamino)butanoyl]amino]butanoyl]-[D-Asp14,Arg17,Pro21,Pro27,Arg35]-h-amylin (peptide)
peptide: K([γGlu-γGlu-C20 diacid])CNTATCATQRLA[dD]FLRHSSPNFGAIPSSTNVGSRTY-NH2
modifications: disulfide 2-7; N-terminus assumed
SMILES: CC[C@H](C)[C@H](NC(=O)[C@H](C)NC(=O)CNC(=O)[C@H](Cc1ccccc1)NC(=O)[C@H](CC(N)=O)NC(=O)[C@@H]1CCCN1C(=O)[C@H](CO)NC(=O)[C@H](CO)NC(=O)[C@H](Cc1c[nH]cn1)NC(=O)[C@H](CCCNC(=N)N)NC(=O)[C@H](CC(C)C)NC(=O)[C@H](Cc1ccccc1)NC(=O)[C@@H](CC(=O)O)NC(=O)[C@H](C)NC(=O)[C@H](CC(C)C)NC(=O)[C@H](CCCNC(=N)N)NC(=O)[C@H](CCC(N)=O)NC(=O)[C@@H](NC(=O)[C@H](C)NC(=O)[C@@H]1CSSC[C@H](NC(=O)[C@@H](N)CCCCNC(=O)CC[C@H](NC(=O)CC[C@H](NC(=O)CCCCCCCCCCCCCCCCCCC(=O)O)C(=O)O)C(=O)O)C(=O)N[C@@H](CC(N)=O)C(=O)N[C@@H]([C@@H](C)O)C(=O)N[C@@H](C)C(=O)N[C@@H]([C@@H](C)O)C(=O)N1)[C@@H](C)O)C(=O)N1CCC[C@H]1C(=O)N[C@@H](CO)C(=O)N[C@@H](CO)C(=O)N[C@H](C(=O)N[C@@H](CC(N)=O)C(=O)N[C@H](C(=O)NCC(=O)N[C@@H](CO)C(=O)N[C@@H](CCCNC(=N)N)C(=O)N[C@H](C(=O)N[C@@H](Cc1ccc(O)cc1)C(N)=O)[C@@H](C)O)C(C)C)[C@@H](C)O
B5: N^ε1-[(4S)-4-carboxy-4-(19-carboxynonadecanoylamino)butanoyl]-[Glu14,Arg17,Pro21,Pro27,Pro34,Pro37]-h-amylin (peptide)
peptide: K([γGlu-C20 diacid])CNTATCATQRLAEFLRHSSPNFGAIPSSTNVGPNTP-NH2
modifications: disulfide 2-7; N-terminus assumed
SMILES: CC[C@H](C)[C@H](NC(=O)[C@H](C)NC(=O)CNC(=O)[C@H](Cc1ccccc1)NC(=O)[C@H](CC(N)=O)NC(=O)[C@@H]1CCCN1C(=O)[C@H](CO)NC(=O)[C@H](CO)NC(=O)[C@H](Cc1c[nH]cn1)NC(=O)[C@H](CCCNC(=N)N)NC(=O)[C@H](CC(C)C)NC(=O)[C@H](Cc1ccccc1)NC(=O)[C@H](CCC(=O)O)NC(=O)[C@H](C)NC(=O)[C@H](CC(C)C)NC(=O)[C@H](CCCNC(=N)N)NC(=O)[C@H](CCC(N)=O)NC(=O)[C@@H](NC(=O)[C@H](C)NC(=O)[C@@H]1CSSC[C@H](NC(=O)[C@@H](N)CCCCNC(=O)CC[C@H](NC(=O)CCCCCCCCCCCCCCCCCCC(=O)O)C(=O)O)C(=O)N[C@@H](CC(N)=O)C(=O)N[C@@H]([C@@H](C)O)C(=O)N[C@@H](C)C(=O)N[C@@H]([C@@H](C)O)C(=O)N1)[C@@H](C)O)C(=O)N1CCC[C@H]1C(=O)N[C@@H](CO)C(=O)N[C@@H](CO)C(=O)N[C@H](C(=O)N[C@@H](CC(N)=O)C(=O)N[C@H](C(=O)NCC(=O)N1CCC[C@H]1C(=O)N[C@@H](CC(N)=O)C(=O)N[C@H](C(=O)N1CCC[C@H]1C(N)=O)[C@@H](C)O)C(C)C)[C@@H](C)O
B6: N^ε1-[(4S)-4-carboxy-4-[[(4S)-4-carboxy-4-(19-carboxynonadecanoylamino)butanoyl]amino]butanoyl]-[Asp14,Arg17,Pro21,Pro27,Pro34,Arg35]-h-amylin (peptide)
peptide: K([γGlu-γGlu-C20 diacid])CNTATCATQRLADFLRHSSPNFGAIPSSTNVGPRTY-NH2
modifications: disulfide 2-7
notes: also called compound 130
B7: N^ε1-[(4S)-4-carboxy-4-[[(4S)-4-carboxy-4-(19-carboxynonadecanoylamino)butanoyl]amino]butanoyl]-[Glu14,Arg17,Pro21,Pro27,Pro34,Glu35,Pro37]-h-amylin (peptide)
peptide: K([γGlu-γGlu-C20 diacid])CNTATCATQRLAEFLRHSSPNFGAIPSSTNVGPETP-NH2
modifications: disulfide 2-7; N-terminus assumed
SMILES: CC[C@H](C)[C@H](NC(=O)[C@H](C)NC(=O)CNC(=O)[C@H](Cc1ccccc1)NC(=O)[C@H](CC(N)=O)NC(=O)[C@@H]1CCCN1C(=O)[C@H](CO)NC(=O)[C@H](CO)NC(=O)[C@H](Cc1c[nH]cn1)NC(=O)[C@H](CCCNC(=N)N)NC(=O)[C@H](CC(C)C)NC(=O)[C@H](Cc1ccccc1)NC(=O)[C@H](CCC(=O)O)NC(=O)[C@H](C)NC(=O)[C@H](CC(C)C)NC(=O)[C@H](CCCNC(=N)N)NC(=O)[C@H](CCC(N)=O)NC(=O)[C@@H](NC(=O)[C@H](C)NC(=O)[C@@H]1CSSC[C@H](NC(=O)[C@@H](N)CCCCNC(=O)CC[C@H](NC(=O)CC[C@H](NC(=O)CCCCCCCCCCCCCCCCCCC(=O)O)C(=O)O)C(=O)O)C(=O)N[C@@H](CC(N)=O)C(=O)N[C@@H]([C@@H](C)O)C(=O)N[C@@H](C)C(=O)N[C@@H]([C@@H](C)O)C(=O)N1)[C@@H](C)O)C(=O)N1CCC[C@H]1C(=O)N[C@@H](CO)C(=O)N[C@@H](CO)C(=O)N[C@H](C(=O)N[C@@H](CC(N)=O)C(=O)N[C@H](C(=O)NCC(=O)N1CCC[C@H]1C(=O)N[C@@H](CCC(=O)O)C(=O)N[C@H](C(=O)N1CCC[C@H]1C(N)=O)[C@@H](C)O)C(C)C)[C@@H](C)O
B8: N^ε1-[(4S)-4-carboxy-4-(19-carboxynonadecanoylamino)butanoyl]-[Asp14,Arg17,Pro21,Pro27,Pro34,Arg35]-h-amylin (peptide)
peptide: K([γGlu-C20 diacid])CNTATCATQRLADFLRHSSPNFGAIPSSTNVGPRTY-NH2
modifications: disulfide 2-7; N-terminus assumed
SMILES: CC[C@H](C)[C@H](NC(=O)[C@H](C)NC(=O)CNC(=O)[C@H](Cc1ccccc1)NC(=O)[C@H](CC(N)=O)NC(=O)[C@@H]1CCCN1C(=O)[C@H](CO)NC(=O)[C@H](CO)NC(=O)[C@H](Cc1c[nH]cn1)NC(=O)[C@H](CCCNC(=N)N)NC(=O)[C@H](CC(C)C)NC(=O)[C@H](Cc1ccccc1)NC(=O)[C@H](CC(=O)O)NC(=O)[C@H](C)NC(=O)[C@H](CC(C)C)NC(=O)[C@H](CCCNC(=N)N)NC(=O)[C@H](CCC(N)=O)NC(=O)[C@@H](NC(=O)[C@H](C)NC(=O)[C@@H]1CSSC[C@H](NC(=O)[C@@H](N)CCCCNC(=O)CC[C@H](NC(=O)CCCCCCCCCCCCCCCCCCC(=O)O)C(=O)O)C(=O)N[C@@H](CC(N)=O)C(=O)N[C@@H]([C@@H](C)O)C(=O)N[C@@H](C)C(=O)N[C@@H]([C@@H](C)O)C(=O)N1)[C@@H](C)O)C(=O)N1CCC[C@H]1C(=O)N[C@@H](CO)C(=O)N[C@@H](CO)C(=O)N[C@H](C(=O)N[C@@H](CC(N)=O)C(=O)N[C@H](C(=O)NCC(=O)N1CCC[C@H]1C(=O)N[C@@H](CCCNC(=N)N)C(=O)N[C@H](C(=O)N[C@@H](Cc1ccc(O)cc1)C(N)=O)[C@@H](C)O)C(C)C)[C@@H](C)O

target: T1, human amylin receptor (amylin 3(a) …); test: SPA displacement of 125I-rat amylin, hAmylin 3(a) receptor membranes
Outline: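 SPA beads with BHK Amylin 3(a)/CRE-luc cell membranes (35 ng/μL final) in 50 mM Hepes pH 7.4, 1 mM CaCl2, 5 mM MgCl₂, 0.1% OA, 0.02% Tween20.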

**Q.** With B1 as the binder, how does the IC50 read?
**A.** The IC50 was 0.148 nM.

**Q.** Which IC50 does the source give for B2 here?
**A.** Its IC50 is 0.377 nM.

**Q.** For B3, which IC50 is on record?
**A.** Its IC50 is 0.131 nM.

**Q.** Which IC50 does the source give for B4 here?
**A.** The IC50 was 0.365 nM.

**Q.** For B5, which IC50 is on record?
**A.** The IC50 was 0.214 nM.

**Q.** How did the IC50 turn out when B6 was run?
**A.** Its IC50 is 0.453 nM.

**Q.** How did the IC50 turn out when B7 was run?
**A.** The IC50 was 0.533 nM.

**Q.** For B8, which IC50 is on record?
**A.** Its IC50 is 0.281 nM.
